{"source": "the nanobody polyreactivity screen of Harvey et al. (2022)"}
{"experiment": "yeast display, Sf9 membrane polyspecificity reagent, FACS + sequencing; frameworks hold sequencing errors", "procedure,_shortened": "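Polyreactivity labels are assigned by the sorting gate from which each nanobody was recovered. The gates were low and high (top ~1%), set on anti-HA fluorescence for expression and streptavidin fluorescence for reagent binding. Before sorting, galactose-induced (36–48 hours) yeast display cells were stained for 1 hour at 4 °C with 10% biotinylated, detergent-solubilized Sf9 membrane reagent.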"}
{"sequence": "QVQLVESGGGLVQAGGSLRLSCAASGSTFTGYAMGWYRQAPGKERELVAAISISGGRTFYADSVKGRFTISRDNAKNTVYLQMNSLKPEDTAVYYCAAYLRGSKYSFDYWGQGTQVTVSS", "polyreactivity (PSR sort gate)": "high polyreactivity"}
{"sequence": "QVQLVESGGGLVQAGGSLRLSCAASGSTFTHYAMGWYRQAPGKERELVAAITSSGGSTYYADSVKGRFTISRDNAKNTVYLQMNSLKPEDTAVYYCAARGSYRNRYRHDYWGQGTQVTVSS", "polyreactivity (PSR sort gate)": "high polyreactivity"}
{"sequence": "QVQLVESGGGLVQAGGSLRLSCAASGSTFTINAMGWYRQAPGKERELVAAISRSGVRTFYADSVKGRFTNSRDNAKNTVYLQRNSLKPEDTAVYYCAKQTYRVTTDEGDYWGQGTQVTVSS", "polyreactivity (PSR sort gate)": "high polyreactivity"}
{"sequence": "QVQLVESGGGLVQAGGSLRLSCAASGSTFTINVMGWYRQAPGKERELVAAINGGGRTNYADSVKGRFTSSRDNAKNTVYLQMNSLKPEDTAVYYCAADGLSNVRQMDYWGQGTQVTVSS", "polyreactivity (PSR sort gate)": "low polyreactivity"}
{"sequence": "QVQLVESGGGLVQAGGSLRLSCAASGSTFTINVMGWYRQAPGKERELVAAINGGGRTNYADYVKGRFTISRDNAKNTVYLQMNSLKPEDTAVYYCAADCYTYWFYQLIPDYDYWGQGTQVTVSS", "polyreactivity (PSR sort gate)": "low polyreactivity"}
{"sequence": "QVQLVESGGGLVQAGGSLRLSCAASGSTFTINVMGWYRQSPGKERELVAAINGGGRTNYADSVKGRFTISRDNAKNTVYLQMNSLKPEDTAVYYCAADGLSNVRQMDYWGQGTQVTVSS", "polyreactivity (PSR sort gate)": "low polyreactivity"}
{"sequence": "QVQLVESGGGLVQAGGSLRLSCAASGSTFTINVMGWYSQAPGKEREVVAAINGGGRTNYADSVKGRFTISRDHAKNTVNLQMNSLKPEDTAVYYCAADGLSNVRQMDYWGQGTQVTVSS", "polyreactivity (PSR sort gate)": "low polyreactivity"}
{"sequence": "QVQLVESGGGLVQAGGSLRLSCAASGSTFTIYAMGWYRPAPGKERELVAAIDWSGGGTDYADSVKGRFTISRDNAKNTVYLQMNSLKPEDTAVYYCAAETFYDYGGYDYWGQGTQVTVSS", "polyreactivity (PSR sort gate)": "low polyreactivity"}
{"sequence": "QVQLVESGGGLVQAGGSLRLSCAASGSTFTKNVMGWYRQAPGKERELVAAISSGGRTNYADSVKGRFTISRDNAKNTVYLQMNSLKPEDTAVYYCAADVGYFKSDYWGQGTQVTVSS", "polyreactivity (PSR sort gate)": "low polyreactivity"}
{"sequence": "QVQLVESGGGLVQAGGSLRLSCAASGSTFTKYAMGWYRKAPGKERELVAAITYSGGRTYYADSVKGRFTISRDNAKNTVYLQMNSLKPEDTAVYYCAAATYAGKPMEYWGQGTQVTVSS", "polyreactivity (PSR sort gate)": "high polyreactivity"}
{"sequence": "QVQLVESGGGLVQAGGSLRLSCAASGSTFTLYAMGWYRQAPGQERELVAAIRRGGSTNYADSVKGRFTISRDNAKNPVYLQMNSLKPEDTAVYYSAADTYTSRSRYSGSGGYDYWGQGTQVTVSS", "polyreactivity (PSR sort gate)": "low polyreactivity"}
{"sequence": "QVQLVESGGGLVQAGGSLRLSCAASGSTFTPNDMGWYRQAPGKERELVAAINSGGGRTYYADSVKGRFTISRDNAKNTVYLQMNSLKPEDTAVYYCAKRLYISGYGYGYWGQGTQVTVSS", "polyreactivity (PSR sort gate)": "high polyreactivity"}
{"sequence": "QVQLVESGGGLVQAGGSLRLSCAASGSTFTPYAMGWHRQAPGKERELVAAITIRGGSTYYADSVKGRFTISRDNAKNTVYLQMYSLKPEDTAVYYCAREYIFSVYDYSTSYYYWGQGTQVTVSS", "polyreactivity (PSR sort gate)": "low polyreactivity"}
{"sequence": "QVQLVESGGGLVQAGGSLRLSCAASGSTFTQYAMGWYRQAPGKERELVAAINSRGDSTYYADSVKGRFTISRDNAKNTVYLQMNSLKPEDTAVYYCAATGYLSYYQQDLWLEYYYWGQGTQVTVSS", "polyreactivity (PSR sort gate)": "low polyreactivity"}
{"sequence": "QVQLVESGGGLVQAGGSLRLSCAASGSTFTQYAMGWYRQAPGKERELVATISRRGTRTYYADSVKGRFTISRDNAKNTVYLQMNSLKPEDTAVYYCAADNGPYRTIGYDSWGQGTQVTVSS", "polyreactivity (PSR sort gate)": "high polyreactivity"}
{"sequence": "QVQLVESGGGLVQAGGSLRLSCAASGSTFTQYVMGWYRQAPGKERELVAAISDSGSTYYADSVKGRFTISRDNAKNTVYLQMNSLKPEDTAVYYCNADDVEFYYGYGYLDYDYWGQGTQVTVSS", "polyreactivity (PSR sort gate)": "low polyreactivity"}
{"sequence": "QVQLVESGGGLVQAGGSLRLSCAASGSTFTRNAMGWYRQAPGKERELVARISRSGGSTYYADSVKGRFTISRDNAKNSVYLQMNSLKPEDTAVYDCNKDWYPRYPYVKGERDYWGEGTQVTVSS", "polyreactivity (PSR sort gate)": "high polyreactivity"}
{"sequence": "QVQLVESGGGLVQAGGSLRLSCAASGSTFTRNAMGWYRQAPGKERELVATISSGGSTNYADSVKGRFTISRDNAKNTVYLQMNSLKPEDTAVYYCAKRSLYRYYYWGQGTQVTVSS", "polyreactivity (PSR sort gate)": "high polyreactivity"}
{"sequence": "QVQLVESGGGLVQAGGSLRLSCAASGSTFTRYAMGWYRPAPGKERELVAAISLSGGDTYYADSVKGRFTISRDNAKNTVYLQMNSLKPEDTAVYYCAARWGYRGYSYEYWGQGTQVTVSS", "polyreactivity (PSR sort gate)": "high polyreactivity"}
{"sequence": "QVQLVESGGGLVQAGGSLRLSCAASGSTFTRYAMGWYRQAPGKERELVAAISRGGSTNYADSVKGRFTISRDNAKNTVYLQMNSLKPEDTAVYYCAKGSNRSRGYYWGQGTQVTVSS", "polyreactivity (PSR sort gate)": "high polyreactivity"}
{"sequence": "QVQLVESGGGLVQAGGSLRLSCAASGSTFTRYAMGWYRQAPGKERELVAAISSSAGRTYYADSVKGRFTISRDNAKNTVYLQMNSLKPEDTAVYYCAATRVYAGAQYDYWGQGTQVTVSS", "polyreactivity (PSR sort gate)": "high polyreactivity"}
{"sequence": "QVQLVESGGGLVQAGGSLRLSCAASGSTFTRYAMGWYRQAPGKERELVAGITGRGGSTYYADSVKGRFTISRDNAKNTVYLQMNSLKPEDTAVYYCNKRRRGVTTYDYWGQGTQVTVSS", "polyreactivity (PSR sort gate)": "high polyreactivity"}
{"sequence": "QVQLVESGGGLVQAGGSLRLSCAASGSTFTRYAMGWYRQAPGKERELVASISRSGNTYYADSVKGRFTISRDNAKNTVYLQMNSLKPEDTAVNYCAAKRKSYYSYNFDYWGQGTQVTVSS", "polyreactivity (PSR sort gate)": "high polyreactivity"}
{"sequence": "QVQLVESGGGLVQAGGSLRLSCAASGSTFTSYAMGWYRQAPGKEREFVAAISQSSGSTYYADSVKWSFTISRDNAKNTVYLQMNSLKPEDTAVYYCAAKGRIRYGYGFDYWGQGTQVTVSS", "polyreactivity (PSR sort gate)": "high polyreactivity"}
{"sequence": "QVQLVESGGGLVQAGGSLRLSCAASGSTFTSYAMGWYRQAPGKERELVAAISKSGGSTNYADSVKGRFTISRDNAKNTVYLQMNSLKPEDTAVYYCAALGIGSYRRYSGYDYWGQGTQVTVSS", "polyreactivity (PSR sort gate)": "low polyreactivity"}
{"sequence": "QVQLVESGGGLVQAGGSLRLSCAASGSTFTSYAMGWYRQAPGKERELVAAISKSGGSTYYADSVKGRFTISRDNAKNTVYLQMNSLKPEDTAVYYCAKYIAYYGYVPSPWDHPGDDYWGQGTQVTVSS", "polyreactivity (PSR sort gate)": "low polyreactivity"}
{"sequence": "QVQLVESGGGLVQAGGSLRLSCAASGSTFTSYAMGWYRQAPGKERELVAAISRSGGRTYYADSVKGRFTISRDNAKYTVYLQMNSLKPEDTAVYYCNAASLSKSDYWGQGTQVTVSS", "polyreactivity (PSR sort gate)": "high polyreactivity"}
{"sequence": "QVQLVESGGGLVQAGGSLRLSCAASGSTFTTNAMGWYRQAPGKERELVATISRGGSTYYADSVKGRFTISRDNAKNTVYIQMNRLKPEDTAVYYCATDVQVPGIGRSVYAYEYWGQVTQVTVSS", "polyreactivity (PSR sort gate)": "low polyreactivity"}
{"sequence": "QVQLVESGGGLVQAGGSLRLSCAASGSTFTTYVMGWYRQAPGKERELVAAISRRGGRTYYADSVKGRFTISRDNAKNTVYLQMNSLKPEDTAVYYCNKVYPTYYYYRGGPTEYDYWGQGTQVTVSS", "polyreactivity (PSR sort gate)": "high polyreactivity"}
{"sequence": "QVQLVESGGGLVQAGGSLRLSCAASGSTFTVNAMGWYRQAPGKERELVAAINWSGGSTYYADSVKGRFTISRDNAKNTVYLQMNSLKPEDTAVYYCNKDREPYGYWSFDYWGQGTQVTVSS", "polyreactivity (PSR sort gate)": "low polyreactivity"}
{"sequence": "QVQLVESGGGLVQAGGSLRLSCAASGSTFTVNDMGWYRQAPGKERELVAAITQRDGRTFYADSVKGRFTISRDNAKNTVYLQINSLKPEDTGVYYCAADYGWYTYGDYDYWGQGTQVTVSS", "polyreactivity (PSR sort gate)": "low polyreactivity"}
